# Data as given in US11466067B2 (priority 2019, dated 2022).
# Assays:
# circulating cytokines [1] = test: Plasma cytokines by MSD V-plex Proinflammatory Panel 1 (Example 14); format: in vivo, mice
# Source text: Plasma cytokines were quantified using the V-plex Proinflammatory Panel 1 Mouse Kit. Plasma IL-1Ra was quantitated by sandwich immunoassay using an antibody pair from the Mouse IL-1Ra/IL-1F3 DuoSet ELISA (R&D Systems #DY480), Streptavidin SULFO-TAG Labeled (MSD #R32AD-1), Multi-Array 96 Plate Pack, SECTOR Plate MSD #L15XA-3 and Read Buffer T (4×) (MSD #R92TC-2). Samples were read on the QuickPlex SQ 120 plate reader (Meso Scale Discovery, Rockville, Md.).
# colonic markers = test: Colonic sigmoidoscopy spray in NHP: inflammatory and tissue repair markers; format: in vivo, Macaca fascicularis; conditions: 1, 3, 10 mg
# Description: To assess the effect of an IL-10 delivery construct on pro-inflammatory and anti-inflammatory markers the IL-10 delivery construct was delivered to male Macaca fascicularis monkeys (about 5 to about 8 kg) by colonic sigmoidoscopy with a spray nozzle. The IL-10 delivery construct was administered at doses of 1 mg, 3 mg, and 10 mg formulated in albumin.
# circulating cytokines [2] = conditions: 8.45 mg/kg, Luminex
# ulcerative colitis = test: Phase 1b multiple ascending dose in patients with active UC; format: in vivo, human
# Description: Data was gathered on the safety, tolerability, pharmacokinetics, pharmacodynamics, and initial clinical response following a multiple ascending dose (MAD) of the IL-10 delivery construct in adult patients with active UC over 14 days of treatment. […] A coating with a weight ratio of 50:50 of Eudragit® L30D55: Eudragit® FS30D was applied with a thickness of 14.8 to 16.0 mg/cm^2 and a weight of approximately 76 mg to each capsule. Placebo capsules were generated using similarly coated empty capsules.
# A total of four cohorts were dosed with either 1 mg, 3 mg, 10, mg or 30 mg of the IL-10 delivery construct, randomized 3:1 to receive the IL-10 delivery construct or a placebo administered once daily for fourteen days. The goal of the trial was to assess the safety of the IL-10 delivery construct and any change in UC disease activity, through endoscopy, histology, biomarkers, and serum samples. Stool samples and colonic biopsies were obtained at baseline and day 14 of treatment to assess fecal calprotectin as well as histology based upon blinded central read of the Geboes scoring system. Fecal calprotectin is an objective marker of clinical response in UC studies and the Geboes scoring system is a measure of histological response. The Geboes scoring system of this example used a 0-22 point histologic scoring system in which higher scores represent more severe disease.
# [3] = Purification with and without sulfitolysis: SEC-HPLC forms, yield, dimer recovery
# Description: Refolding in both processes was carried out at 4° C. The refolding solution used in both processes contained 1 mM reduced glutathione, 0.5 mM oxidized glutathione, 1M Arginine-HCl, 250 mM sucrose, 100 mM Tris pH 8.5 at 4° C., and 2 mM EDTA.
# DSS-induced colitis = format: in vivo, C57BL6/J mice
# [4] = Single oral capsule dose in NHP: plasma total IL-10; format: in vivo, Macaca fascicularis
# Source text: IL-10 delivery constructs (SEQ ID NO: 5) and caffeine were filled by weight into size-1 Capsugel V-Cap Hydroxypropyl Methylcellulose (HPMC) capsules, for oral administration. The capsules were then successively coated in a pan spray coater with three layers of polymers. The first and third layer were thin coatings of HPMC, the first to seal the crease where the capsule shells come together, and the third to minimize sticking of the capsules to each other. The second coating layer was comprised of a 50:50 mixture of Eudragit® (Evonik Industries AG) enteric acrylic polymers FS 30 D and L 30 D-55, designed to dissolve and allow the capsule to open at pH 6.5.
# The MSD Small Spot IL-10 plate was washed 3 times with PBST before use. Standards were prepared in Diluent 2 (MSD Cat No R51BB), and samples diluted 2-fold in Diluent 2. Standards and diluted samples were added to the assay plate and the plate incubated for 2 hours at room temperature with shaking. The plate was washed 3 times with PBST and 1×SULFO TAG anti-huIL-10. Antibody was added to the plate before incubation for 1 hour at room temperature with shaking. Following a wash step, 2×MSD Read buffer was added to the wells of the plate and the plate is read in the MSD Sector Imager 600 plate reader. The lower limit of detection of each analyte is defined as 2.5 standard deviation above background.
# Plasma samples were analyzed for Total IL-10, IL-1Ra, caffeine content and a panel of proinflammatory cytokines. Assay LLOQs were: total IL-10=0.3 pg/mL; IL-1Ra=78 pg/mL; and caffeine=[…]. Plasma concentration of IL-10 can refer to the concentration in plasma of both naturally occurring IL-10 and IL-10 appended to a carrier (for example, IL-10 in an IL-10 delivery construct described herein).
# IL-10 delivery construct dosing at multiple fixed doses in non-naïve adult male Macaca fascicularis was conducted by Valley Biosystems (West Sacramento, Calif.). […] Dosing groups are described in TABLE 45.
# Animals were fasted until after the 3 hour blood sample collection, when food was given. For dosing, the animals were manually restrained and a bite block placed between the jaws. A pill gun containing the dosing capsule was inserted into the back of the oral cavity and the capsule released. Up to 4 capsules were administered consecutively and a small amount of water given to induce swallowing. Once the administration of the dose was confirmed, the bite block was removed and the head released.
# Blood samples were collected in K2EDTA tubes from each animal pre-dose and at 0.5, 1, 2, 3, 4, 5, 6, 7, 8, and 24 hours post-dose. Animals were returned to home cages following the 2-hour sample collection. Following physical restraint, blood samples were collected via direct venous puncture using a cephalic, femoral or saphenous vein, which were processed to plasma and stored frozen at −60° C. until shipment.
molecule,measurement,setting,value
"IL-10 delivery construct: recombinant homodimeric fusion protein: N-terminal methionine, cholix386 domain, polyGlySer spacer, recombinant human IL-10 (protein, homodimer) MVEEALNIFDECRSPCSLTPEPGKPIQSKLSIPSDVVLDEGVLYYSMTINDEQNDIKDEDKGESIITIGEFATVRATRHYVNQDAPFGVIHLDITTENGTKTYSYNRKEGEFAINWLVPIGEDSPASIKISVDELDQQRNIIEVPKLYSIDLDNQTLEQWKTQGNVSFSVTRPEHNIAISWPSVSYKAAQKEGSRHKRWAHWHTGLALCWLVPMDAIYNYITQQNCTLGDNWFGGSYETVAGTPKVITVKQGIEQKPVEQRIHFSKGNAMSALAAHRVCGVPLETLARSRKPRDLTDDLSCAYQAQNIVSLFVATRILFSHLDSVFTLNLDEQEPEVAERLSDLRRINENNPGMVTQVLTVARQIYNDYVTHHPGLTPEQTSAGAQAGGGGSGGGGSGGGGSPGQGTQSENSCTHFPGNLPNMLRDLRDAFSRVKTFFQMKDQLDNLLLKESLLEDFKGYLGCQALSEMIQFYLEEVMPQAENQDPDIKAHVNSLGENLKTLRLRLRRCHRFLPCENKSKAVEQVKNAFNKLQEKGIYKAMSEFDIFINYIEAYMTMKIRN",suppression of induction of plasma IL-4 (trend),circulating cytokines [1],62%
same,suppression of induction of plasma IL-6 (trend),circulating cytokines [1],61%
same,suppression of induction of plasma IL-12p70 (trend),circulating cytokines [1],65%
same,suppression of induction of plasma KC/GRO (trend),circulating cytokines [1],51%
same,plasma IL-1β and IL-2 vs Vehicle,circulating cytokines [1]; p<0.05,significantly reduced
same,expression of anti-inflammatory markers,colonic markers,increased expression
same,expression of pro-inflammatory markers,colonic markers,decreased expression
same,expression of tissue repair and wound healing biomarkers,colonic markers,increased expression
same,reduction of plasma IL-6 vs Vehicle,circulating cytokines [2],33%
same,reduction of plasma IL-23 vs Vehicle,circulating cytokines [2],73%
same,FCP activity at higher doses,ulcerative colitis; 10 mg and 30 mg,diminution of activity
same,"Geboes score of one UC patient, pre-dose to post-treatment","ulcerative colitis; 10 mg, 14 days, 22 point scale",improved from a score of 15 to a score of three
same,tolerability in patients with UC,"ulcerative colitis; 1-30 mg once daily, 14 days",well tolerated
same,CRP levels vs placebo,"ulcerative colitis; 1 and 3 mgs, baseline CRP greater than 5 mg/L",greater reductions in CRP levels
same,patients with reduced Geboes score,"ulcerative colitis; 14 days, active patients",60%
same,TEAEs in the 12 active patients,"ulcerative colitis; human, in vivo",20
same,Dimer Purity (%),[3]; No Sulfitolysis of SIB (97 mL Capto Q),84%
same,Dimer Purity (%),[3]; Sulfitolysis of SIB (97 mL Capto Q),74%
same,"edema width, mid colon",DSS-induced colitis; 30 mg/kg,significantly improved
same,"hyperplasia, mid colon",DSS-induced colitis; 30 mg/kg,significantly improved
same,"mucosal thickness, mid colon",DSS-induced colitis; 30 mg/kg,significantly improved
same,colon length vs vehicle,"DSS-induced colitis; 10 and 30 mg/kg, p<0.05",Significant improvement
same,DSS-induced body weight loss,"DSS-induced colitis; construct 30 mg/kg, CsA 75 mg/kg, oral q.d.",significantly reduced DSS-induced weight loss
same,plasma total IL-10 Tmax,[4]; 1 mg,4 h
same,plasma total IL-10 Tmax,[4]; 4 mg,3 h
same,plasma total IL-10 Tmax,[4]; 20.5 mg,2 hours post dose
same,plasma total IL-10 Tmax,[4]; 82 mg,2 hours post dose
same,plasma total IL-10 Cmax,"[4]; 82 mg (4×20.5 mg capsules), oral",1.34 pg/mL
